Laboratory results taken from US20140056902A1 (Kyowa Kirin, published 2014).
Substitutions are numbered along the chain they refer to.

Columns and labels:
[1] = biological target: T1, N-terminal His-tagged BMP10 expressed by the pLN1V5_human BMP10 vector (human, UniProt O95393 22-424); experiment: antigen-immobilized ELISA, antigen coated at 3 ug/mL
T1 sequence: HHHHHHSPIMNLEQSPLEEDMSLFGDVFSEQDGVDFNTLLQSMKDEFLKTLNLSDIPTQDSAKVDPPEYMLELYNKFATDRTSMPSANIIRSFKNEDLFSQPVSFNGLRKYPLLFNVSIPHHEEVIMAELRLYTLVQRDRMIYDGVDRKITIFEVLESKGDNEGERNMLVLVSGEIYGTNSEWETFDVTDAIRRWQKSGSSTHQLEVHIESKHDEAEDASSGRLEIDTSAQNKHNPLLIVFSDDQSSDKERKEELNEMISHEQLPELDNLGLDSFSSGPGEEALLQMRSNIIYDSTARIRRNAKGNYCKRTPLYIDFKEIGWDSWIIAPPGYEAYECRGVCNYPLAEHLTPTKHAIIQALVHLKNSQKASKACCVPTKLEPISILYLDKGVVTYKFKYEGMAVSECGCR
Protocol: (§1) Antigen immobilized ELISA of the obtained antibodies was performed using the chimeric protein. 3 μg/mL of the recombinant human BMP9, BMP10, and BMP9/10 chimeric proteins of Example 20-2 in 50 mmol/L NaHCO₃ buffer were added to a 96-well plate for ELISA (F96 MAXISORP NUNC-IMMUNO PLATE, manufactured by Thermo Fisher Scientific, Cat#442404) at an amount of 50 μL/well, and left at 4° C. overnight for adsorption.
(§2) After removal of the reagent for immobilization, 200 μL/well of 1% BSA-PBS was added, and left at room temperature for 1 hour for blocking, and washing was carried out using PBST five times. […]
(§3) The plate was washed with PBST ten times, and 50 μL/well of the TMB chromogen reagent (TMB+Substrate-Chromogen, manufactured by Dako, Cat#S 1599) was added for chromogenic reaction. When the intensity of chromogenic reaction became strong enough, 50 μL/well of a 1 N sulfuric acid solution (manufactured by Wako, Cat#192-04755) was added, and absorbance at 450 nm and 570 nm was determined using a Multiskan Spectrum (manufactured by Thermo Labsystems).

[2] = biological target: T2, chimeric protein 5 of human BMP9/10 region C (human, UniProt Q9UK05 320-429; Q9UK05 23-319); experiment: antigen-immobilized ELISA, antigen coated at 3 ug/mL, antibody 1000 ng/mL; + = absorbance of 1 or more
T2 construct: Made in the pLN1V5_human BMP9 vector (His-tagged complex); also called Chimera 5; human BMP9/BMP10 chimeric protein 5; not shown: N-terminal His tag
T2 chain 1: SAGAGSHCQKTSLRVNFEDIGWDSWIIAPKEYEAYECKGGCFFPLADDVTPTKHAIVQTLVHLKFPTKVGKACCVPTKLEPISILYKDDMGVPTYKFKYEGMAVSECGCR
T2 chain 2: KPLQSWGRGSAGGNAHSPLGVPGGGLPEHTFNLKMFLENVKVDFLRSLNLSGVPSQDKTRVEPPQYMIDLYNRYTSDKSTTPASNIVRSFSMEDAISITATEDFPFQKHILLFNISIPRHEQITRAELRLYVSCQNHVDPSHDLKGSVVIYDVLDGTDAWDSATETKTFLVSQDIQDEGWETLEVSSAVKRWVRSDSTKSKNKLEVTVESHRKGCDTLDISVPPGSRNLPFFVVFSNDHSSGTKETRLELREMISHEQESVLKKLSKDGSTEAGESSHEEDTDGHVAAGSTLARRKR
Protocol: as §1, §2, §3

[3] = biological target: T3, human mature dimer BMP10 recombinant protein (manufactured by R&D systems, Cat#2926-BP) (human, UniProt O95393 317-424); experiment: ELISA, immobilized antigen (100 ng/mL coat), biotin-labeled antibody at 100 ng/mL, absorbance 450-570 nm
T3 construct: Bought protein; also called human BMP10
T3 sequence: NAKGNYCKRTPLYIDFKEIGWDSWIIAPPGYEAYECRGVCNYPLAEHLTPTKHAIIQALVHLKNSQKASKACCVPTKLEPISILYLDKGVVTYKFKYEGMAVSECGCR
Protocol: To examine specificity of the obtained antibodies to human BMP9, their binding ability to human BMP9 and human BMP10 having the highest homology to human BMP9 was tested by comparison. First, 100 ng/mL of human mature dimer BMP9 recombinant protein (manufactured by R&D systems, Cat#3209-BP), or human mature dimer BMP10 recombinant protein (manufactured by R&D systems, Cat#2926-BP) prepared in 50 mmol/L NaHCO₃ buffer (manufactured by Wako, Cat#191-01305) was added to a 96-well plate for ELISA (F96 MAXISORP NUNC-IMMUNO PLATE, manufactured by Thermo Fisher Scientific, Cat#442404) at an amount of 50 μL/well, and left at 4° C. overnight for adsorption.
Subsequently, 6D10-1-1 antibody, 10D5-2-3 antibody, 3B7-3-3 antibody, R&D antibody, or anti-BMP10 antibody (manufactured by R&D, Cat#MAB2926) that was labeled with biotin using a Biotin Labeling Kit-NH2 (manufactured by COSMO BIO, Cat#LK03) was prepared at a concentration of 100 ng/mL using 10% Super Block in TBST which was prepared by mixing SuperBlock and TBST at a ratio of 1:9. 50 μL/well thereof was aliquoted as a primary antibody, and left at room temperature for 1 hour.
The plate was washed with TBST five times, and 50 μL/well of the TMB substrate reagent (TMB+ Substrate-Chromogen, manufactured by Dako, Cat#S1599) was added for color-development. When proper color was developed, 50 μL/well of the 1 N sulfuric acid solution (manufactured by Wako, Cat#192-04755) was added, and absorbance (450 nm-570 nm) at a sample wavelength of 450 nm and at a reference wavelength of 570 nm was determined using a plate reader (manufactured by Spectra Max, Molecular Devices).

[4] = biological target: T4, human BMP9 recombinant protein prepared according to Example 12 of WO 2010/126169 (N-terminal His-tagged … (human, UniProt Q9UK05 320-429; Q9UK05 23-319); experiment: SPR (BIAcore 2000), antibody captured on anti-mouse IgG, human BMP9 recombinant protein as analyte, single cycle kinetics
T4 construct: not shown: N-terminal His tag
T4 sequence 1: T2 chain 1 with E80S, I84V, Y95L, F97Y, K98H, A103S, S105A
T4 sequence 2: T2 chain 2
From the text: The binding activity (affinity) of the obtained antibodies to human BMP9 recombinant protein was examined using BIAcore 2000 (manufactured by GE Healthcare). After anti-mouse IgG antibody was immobilized onto a CM5 sensor chip using a Mouse Antibody Capture Kit (manufactured by GE Healthcare), anti-human BMP9 antibody was coupled to an RU value of 700-1100.
Thereafter, 0.152 nmol/L, 0.457 nmol/L, 1.37 nmol/L, 4.1 nmol/L, 12.3 nmol/L, 36.89 nmol/L, 110.67 nmol/L, and […] of the human BMP9 recombinant protein prepared in Example 7-1 were prepared by using an HBS-EP solution (manufactured by GE Healthcare) and added as analytes, and binding affinity was measured.
Based on the obtained values, the dissociation constant (Kd value) was calculated by single cycle kinetics (BIAevaluation Software ver. 3, manufactured by GE Healthcare).

- binding result [1]: no binding
- binding result [2]: binds
- binding result [3]: no binding (tested: 100 ng/mL)
- Kd [4]: 9.69 pM
- Relative binding affinity (to R&D antibody) [4]: 63.6 fold
B1: 10D5-2-3 antibody (antibody, mouse IgG1, V domains shown)
VH: EVKLEESRGGLVQPGGSMKLSCVASGFTFSNYWMNWVRQSPEKGLEWVAHIRLKSDNYATHYAESVRGRFTISRDDSKSSVFLQMNNLRAEDTGIYYCTGGSNYVFAFWGQGTLVTVSA
VL: not shown
notes: Mouse monoclonal from a BMP9 KO mouse hybridoma; mouse IgG1 heavy chain, kappa light chain
